# From publication PMC5720831
# Target: biotinylated Mtb DnaB (Mycobacterium tuberculosis)
# Experiment: BLI; Octet RED96; 200 nM biotinylated DnaB loaded on streptavidin biosensors, DciAMtb in solution at varying concentrations, 300 s association and 300 s dissociation; 150 mM NaCl, 0.02% Tween-20, 0.1% BSA, 10 mM NaPO4 pH 8; double reference subtracted; global fit, 1:1 kinetic binding model
substance,measurement,value
"DciAMtb, purified recombinant, untagged (from UniProt P9WFL1 1-187) (natural protein)",Kd,211 nM
